{"source": "IntAct's records for PubMed 20562859", "key": {"atg10_human ATG10": {"target": "atg10_human ATG10 (UniProt Q9H0Y0)", "sequence (Q9H0Y0 whole entry)": "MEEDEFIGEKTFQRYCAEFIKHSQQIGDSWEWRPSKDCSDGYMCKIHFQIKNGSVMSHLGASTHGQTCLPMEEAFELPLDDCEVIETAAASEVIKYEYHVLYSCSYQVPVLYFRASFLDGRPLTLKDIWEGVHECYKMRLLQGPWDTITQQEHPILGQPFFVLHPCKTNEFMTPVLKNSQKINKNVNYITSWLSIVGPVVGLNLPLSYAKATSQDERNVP"}, "stk3_human STK3": {"target": "T1, stk3_human STK3 (UniProt Q13188)", "T1 sequence": "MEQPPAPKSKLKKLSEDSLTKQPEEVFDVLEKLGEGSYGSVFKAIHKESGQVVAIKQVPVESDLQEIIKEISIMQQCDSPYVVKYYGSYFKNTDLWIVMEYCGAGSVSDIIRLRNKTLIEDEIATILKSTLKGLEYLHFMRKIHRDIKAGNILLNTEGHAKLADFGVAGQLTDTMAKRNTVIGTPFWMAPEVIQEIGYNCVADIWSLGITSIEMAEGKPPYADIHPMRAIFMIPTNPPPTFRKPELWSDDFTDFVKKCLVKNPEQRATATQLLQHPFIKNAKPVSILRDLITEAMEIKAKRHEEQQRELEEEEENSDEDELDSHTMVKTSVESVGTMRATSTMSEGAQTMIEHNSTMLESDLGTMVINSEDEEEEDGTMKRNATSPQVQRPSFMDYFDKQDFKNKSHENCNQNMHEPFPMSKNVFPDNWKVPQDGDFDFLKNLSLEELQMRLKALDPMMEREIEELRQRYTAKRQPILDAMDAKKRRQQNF"}, "rasf3_human RASSF3": {"target": "T2, rasf3_human RASSF3 (UniProt Q86WH2)", "T2 sequence": "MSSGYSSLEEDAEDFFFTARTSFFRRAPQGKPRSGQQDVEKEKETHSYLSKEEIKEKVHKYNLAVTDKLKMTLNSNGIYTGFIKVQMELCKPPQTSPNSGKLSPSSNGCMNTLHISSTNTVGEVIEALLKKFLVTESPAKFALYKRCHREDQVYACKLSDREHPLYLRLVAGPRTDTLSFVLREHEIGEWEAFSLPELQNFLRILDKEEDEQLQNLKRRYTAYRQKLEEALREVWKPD"}, "atg2a_human ATG2A": {"target": "atg2a_human ATG2A (UniProt Q2TAZ0)", "sequence (Q2TAZ0 whole entry)": "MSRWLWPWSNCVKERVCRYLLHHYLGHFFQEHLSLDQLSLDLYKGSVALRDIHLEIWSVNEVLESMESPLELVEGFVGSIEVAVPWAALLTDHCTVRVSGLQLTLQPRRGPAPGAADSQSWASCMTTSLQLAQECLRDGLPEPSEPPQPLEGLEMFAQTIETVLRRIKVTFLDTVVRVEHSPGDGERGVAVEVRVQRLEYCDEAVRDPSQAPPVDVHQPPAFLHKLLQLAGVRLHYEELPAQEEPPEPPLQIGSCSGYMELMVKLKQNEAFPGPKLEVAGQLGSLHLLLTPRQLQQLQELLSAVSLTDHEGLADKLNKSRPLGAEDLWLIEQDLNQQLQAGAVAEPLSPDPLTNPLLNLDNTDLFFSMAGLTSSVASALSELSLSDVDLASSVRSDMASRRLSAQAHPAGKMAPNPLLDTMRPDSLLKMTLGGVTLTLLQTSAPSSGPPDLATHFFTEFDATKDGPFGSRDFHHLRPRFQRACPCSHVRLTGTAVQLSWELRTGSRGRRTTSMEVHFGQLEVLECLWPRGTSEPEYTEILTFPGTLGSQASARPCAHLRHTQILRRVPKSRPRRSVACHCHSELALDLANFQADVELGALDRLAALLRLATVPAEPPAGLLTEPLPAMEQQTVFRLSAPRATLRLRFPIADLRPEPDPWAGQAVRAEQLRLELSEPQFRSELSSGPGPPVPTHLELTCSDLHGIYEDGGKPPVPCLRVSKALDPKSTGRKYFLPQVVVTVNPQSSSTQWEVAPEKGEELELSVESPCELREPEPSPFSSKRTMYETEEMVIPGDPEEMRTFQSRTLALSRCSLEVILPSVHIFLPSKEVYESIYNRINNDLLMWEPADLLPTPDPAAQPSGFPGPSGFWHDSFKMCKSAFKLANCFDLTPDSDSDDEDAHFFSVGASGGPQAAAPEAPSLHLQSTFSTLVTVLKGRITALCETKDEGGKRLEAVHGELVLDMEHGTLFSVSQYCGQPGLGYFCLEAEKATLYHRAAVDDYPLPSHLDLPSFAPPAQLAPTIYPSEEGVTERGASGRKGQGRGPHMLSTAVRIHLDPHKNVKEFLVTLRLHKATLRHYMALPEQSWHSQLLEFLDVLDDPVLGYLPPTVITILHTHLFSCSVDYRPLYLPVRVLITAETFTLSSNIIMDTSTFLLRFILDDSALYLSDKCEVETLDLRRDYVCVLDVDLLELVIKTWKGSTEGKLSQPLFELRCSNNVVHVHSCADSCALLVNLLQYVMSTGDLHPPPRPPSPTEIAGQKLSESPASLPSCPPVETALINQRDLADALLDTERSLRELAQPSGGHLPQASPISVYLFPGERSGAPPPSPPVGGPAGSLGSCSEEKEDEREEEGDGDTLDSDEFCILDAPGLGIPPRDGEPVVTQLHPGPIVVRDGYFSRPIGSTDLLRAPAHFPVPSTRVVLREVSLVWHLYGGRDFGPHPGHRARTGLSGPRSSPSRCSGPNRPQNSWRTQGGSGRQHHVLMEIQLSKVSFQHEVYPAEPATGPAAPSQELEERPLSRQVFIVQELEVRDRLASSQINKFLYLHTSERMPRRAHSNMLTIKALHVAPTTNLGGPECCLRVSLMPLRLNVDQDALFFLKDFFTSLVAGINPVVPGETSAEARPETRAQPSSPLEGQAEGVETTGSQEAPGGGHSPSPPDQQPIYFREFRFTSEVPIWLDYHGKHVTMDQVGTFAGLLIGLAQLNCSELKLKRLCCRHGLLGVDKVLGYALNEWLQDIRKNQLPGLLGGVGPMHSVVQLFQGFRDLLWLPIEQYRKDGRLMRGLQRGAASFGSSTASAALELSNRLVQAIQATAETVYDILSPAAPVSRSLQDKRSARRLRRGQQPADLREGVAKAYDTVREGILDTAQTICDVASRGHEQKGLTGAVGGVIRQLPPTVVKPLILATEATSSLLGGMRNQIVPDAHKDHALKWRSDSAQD"}, "nips2_human NIPSNAP2": {"target": "T3, nips2_human NIPSNAP2 (UniProt O75323)", "T3 sequence": "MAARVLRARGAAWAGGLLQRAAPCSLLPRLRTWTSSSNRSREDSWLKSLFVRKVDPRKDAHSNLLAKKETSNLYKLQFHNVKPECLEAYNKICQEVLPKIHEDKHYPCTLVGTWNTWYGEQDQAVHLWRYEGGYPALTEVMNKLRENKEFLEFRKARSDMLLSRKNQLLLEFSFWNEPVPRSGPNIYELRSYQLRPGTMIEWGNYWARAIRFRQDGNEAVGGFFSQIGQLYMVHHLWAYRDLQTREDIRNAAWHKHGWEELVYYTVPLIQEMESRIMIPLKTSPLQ"}, "atg3_human ATG3": {"target": "atg3_human ATG3 (UniProt Q9NT62)", "sequence (Q9NT62 whole entry)": "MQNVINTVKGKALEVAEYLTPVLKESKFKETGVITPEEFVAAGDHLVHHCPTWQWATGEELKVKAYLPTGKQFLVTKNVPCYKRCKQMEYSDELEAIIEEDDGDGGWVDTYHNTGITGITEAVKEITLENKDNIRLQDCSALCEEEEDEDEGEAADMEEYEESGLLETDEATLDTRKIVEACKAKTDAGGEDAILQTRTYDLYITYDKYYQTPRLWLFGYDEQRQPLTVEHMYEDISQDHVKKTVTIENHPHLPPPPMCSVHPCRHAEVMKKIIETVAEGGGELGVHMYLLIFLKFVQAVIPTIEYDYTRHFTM"}, "tcpr2_human TECPR2": {"target": "T4, tcpr2_human TECPR2 (UniProt O15040)", "T4 sequence": "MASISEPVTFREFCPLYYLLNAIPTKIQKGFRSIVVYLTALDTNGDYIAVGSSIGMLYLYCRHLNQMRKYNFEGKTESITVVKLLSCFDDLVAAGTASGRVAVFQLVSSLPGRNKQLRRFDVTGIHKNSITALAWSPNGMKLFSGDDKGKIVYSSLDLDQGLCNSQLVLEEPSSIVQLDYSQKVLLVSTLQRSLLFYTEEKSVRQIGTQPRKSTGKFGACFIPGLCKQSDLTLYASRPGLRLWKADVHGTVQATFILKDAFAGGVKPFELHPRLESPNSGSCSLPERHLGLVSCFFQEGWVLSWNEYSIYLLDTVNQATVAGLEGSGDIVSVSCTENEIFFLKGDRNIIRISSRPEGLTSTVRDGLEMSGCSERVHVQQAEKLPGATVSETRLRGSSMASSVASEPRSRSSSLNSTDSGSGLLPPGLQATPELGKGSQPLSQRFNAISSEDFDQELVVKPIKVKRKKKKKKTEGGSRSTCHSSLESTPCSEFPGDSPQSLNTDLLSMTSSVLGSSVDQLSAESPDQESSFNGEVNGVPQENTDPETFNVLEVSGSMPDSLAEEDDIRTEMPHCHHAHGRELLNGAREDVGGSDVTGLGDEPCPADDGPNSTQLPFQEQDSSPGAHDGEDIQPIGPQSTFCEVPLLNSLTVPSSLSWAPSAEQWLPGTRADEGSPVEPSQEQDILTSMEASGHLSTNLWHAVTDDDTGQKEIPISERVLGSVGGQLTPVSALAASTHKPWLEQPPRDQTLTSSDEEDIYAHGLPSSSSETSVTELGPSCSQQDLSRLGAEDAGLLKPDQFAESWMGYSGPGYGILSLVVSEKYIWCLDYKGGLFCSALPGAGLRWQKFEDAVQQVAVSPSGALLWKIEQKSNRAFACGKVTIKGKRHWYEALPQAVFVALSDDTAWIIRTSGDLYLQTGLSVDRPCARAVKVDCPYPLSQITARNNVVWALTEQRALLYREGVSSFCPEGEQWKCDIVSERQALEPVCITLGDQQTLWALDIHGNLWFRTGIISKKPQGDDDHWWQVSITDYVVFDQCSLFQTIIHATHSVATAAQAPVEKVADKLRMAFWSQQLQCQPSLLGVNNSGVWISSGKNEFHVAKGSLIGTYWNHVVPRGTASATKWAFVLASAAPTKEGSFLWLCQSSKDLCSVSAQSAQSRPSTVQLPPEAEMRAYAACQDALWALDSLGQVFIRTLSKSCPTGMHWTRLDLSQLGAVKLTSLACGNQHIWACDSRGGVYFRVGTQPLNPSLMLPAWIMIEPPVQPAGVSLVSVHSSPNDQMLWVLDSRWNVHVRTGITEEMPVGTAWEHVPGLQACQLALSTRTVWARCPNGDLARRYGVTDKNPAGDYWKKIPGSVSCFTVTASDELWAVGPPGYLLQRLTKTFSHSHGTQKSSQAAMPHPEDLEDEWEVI"}}, "data": [{"substance": "Microtubule-associated protein 1 light chain 3 beta (Homo sapiens) (from UniProt Q9GZQ8) F52A;L53A", "values": [{"measurement": "effect of a mutation on the interaction", "setting": "atg10_human ATG10", "value": "increasing interaction"}, {"measurement": "effect of a mutation on the interaction", "setting": "stk3_human STK3", "value": "increasing interaction"}, {"measurement": "effect of a mutation on the interaction", "setting": "rasf3_human RASSF3", "value": "increasing interaction"}, {"measurement": "effect of a mutation on the interaction", "setting": "atg2a_human ATG2A", "value": "increasing interaction"}, {"measurement": "effect of a mutation on the interaction", "setting": "nips2_human NIPSNAP2", "value": "increasing interaction"}, {"measurement": "effect of a mutation on the interaction", "setting": "atg3_human ATG3", "value": "disrupting interaction"}, {"measurement": "effect of a mutation on the interaction", "setting": "tcpr2_human TECPR2", "value": "decreasing interaction"}]}, {"substance": "Microtubule-associated protein 1 light chain 3 beta (Homo sapiens) (from UniProt Q9GZQ8) R69A", "values": [{"measurement": "effect of a mutation on the interaction", "setting": "atg10_human ATG10", "value": "decreasing interaction"}, {"measurement": "effect of a mutation on the interaction", "setting": "stk3_human STK3", "value": "decreasing interaction"}, {"measurement": "effect of a mutation on the interaction", "setting": "rasf3_human RASSF3", "value": "decreasing interaction"}, {"measurement": "effect of a mutation on the interaction", "setting": "atg2a_human ATG2A", "value": "decreasing interaction"}, {"measurement": "effect of a mutation on the interaction", "setting": "nips2_human NIPSNAP2", "value": "decreasing interaction"}, {"measurement": "effect of a mutation on the interaction", "setting": "atg3_human ATG3", "value": "disrupting interaction"}, {"measurement": "effect of a mutation on the interaction", "setting": "tcpr2_human TECPR2", "value": "disrupting interaction"}]}]}
